Test results from paper PMC7307139.

Molecular target: T1, vesicular stomatitis virus (VSV) phosphoprotein (P), wild type (vesicular stomatitis virus (VSV)), P03520
T1 chain: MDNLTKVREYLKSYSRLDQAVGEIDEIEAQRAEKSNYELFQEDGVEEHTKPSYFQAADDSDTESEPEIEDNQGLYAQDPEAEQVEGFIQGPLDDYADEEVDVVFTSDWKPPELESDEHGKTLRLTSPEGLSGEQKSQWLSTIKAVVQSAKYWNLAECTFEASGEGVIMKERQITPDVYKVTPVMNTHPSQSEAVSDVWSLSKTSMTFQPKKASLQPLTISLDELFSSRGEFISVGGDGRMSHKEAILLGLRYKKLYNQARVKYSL
Experiment: SEC-MALS
Conditions: remark: other sources report otherwise

B1: vesicular stomatitis virus (VSV) phosphoprotein (P), wild type, P03520 1-265 (natural protein)
chain: MDNLTKVREYLKSYSRLDQAVGEIDEIEAQRAEKSNYELFQEDGVEEHTKPSYFQAADDSDTESEPEIEDNQGLYAQDPEAEQVEGFIQGPLDDYADEEVDVVFTSDWKPPELESDEHGKTLRLTSPEGLSGEQKSQWLSTIKAVVQSAKYWNLAECTFEASGEGVIMKERQITPDVYKVTPVMNTHPSQSEAVSDVWSLSKTSMTFQPKKASLQPLTISLDELFSSRGEFISVGGDGRMSHKEAILLGLRYKKLYNQARVKYSL
stoichiometry N: 2
